For the assay, the target named is DP71L-Flag (Flag-tagged ASFV DP71L), expressed in HEK293T cells. The conditions noted are these: parent: est. 0.52; read off a plot.

For “STING-Strep (Strep-tagged STING) (from UniProt Q86WV6) L374A”, the response (Relative IntDEN to β-actin) worked out at 0.14. The figure for “STING-Strep (Strep-tagged STING) (from UniProt Q86WV6) R375A” is 0.04.

Values taken from article PMC11796124.
